In US5736363A, “IGF-II analogues” (British Bio-technology Limited, priority 1991, dated 1998):

Assays:
type 1 IGF receptor = target: T1, type 1 IGF receptor (Mus musculus, UniProt Q60751); experiment: Type 1 IGF receptor binding assay on Swiss mouse 3T3 cells; conditions: for IC50, inhibits binding of 125I-IGF-II (type 1 IGF receptor): mutant value holds for material from either secretion or refolding route
T1 construct: endogenous in cells; host or cells: Swiss mouse 3T3 cells
Experimental: Swiss 3T3 cells at 5×10^4 cells/ml were seeded into 24 well plates at 5×10^3 cells/well in DMEM containing 10% FCS and incubated at 37°. The cells were used for assay after 5-6 days. For the binding assay, the growth medium was flicked out of the plate, and the cells washed twice with binding medium (serum free DMEM containing 25 mM HEPES, 1 mg/ml BSA and 2 mM glutamine). A further 400 μl of binding medium was added to each well along with 50 μl of sample or IGF-II standard (Bachem). Twofold dilutions of IGF-II were used for the standard curve to give final concentrations in the well from 300-1.56 ng/ml. […] The plate was incubated at room temperature for 2 hr., the assay medium removed and the cells washed four limes in PBS containing 1 mg/ml BSA and 0.1 μM KI. The plates were blotted dry and the cells solubilised for by the addition of 750 μl 0.5M NaOH containing 0.2% w/v Triton X100. After 15 min the lysed samples were transferred to tubes and the residual counts determined using a gamma counter.

type 2 IGF receptor = target: T2, type 2 IGF receptor (Rattus norvegicus, UniProt G3V824); experiment: Type 2 IGF receptor binding assay on H35 (rat hepatoma) cells
T2 construct: endogenous in cells; host or cells: H35 (rat hepatoma) cells
Experimental: Binding to the type 2 IGF receptor was assessed on H35 (rat hepatoma) cells, see FIG. 11. Cells at 5×10^5 cells/ml were seeded into 24 well plates at 5×10^4 cells/well in DMEM containing 0.5% FCS and incubated at 37°. The cells were used for assay after 2-3 days. For the binding assay, the growth medium was flicked out of the plate, and the cells washed once with binding medium (serum free DMEM containing 25 mM HEPES, 1 mg/ml BSA and 2 mM glutamine).
A further 400 μl of binding medium was added to each well along with 50 μl of sample or IGF-II standard (Bachem). Twofold dilutions of IGF-II were used for the standard curve to give final concentrations in the well from 300-1.56 ng/ml. Labelled IGF-II was then added (50 μl of […]) to give a final concentration of 2 ng/ml and a total of about 40,000 dpm per well. The plate was incubated at room temperature for 3 hr., the assay medium removed and the cells washed four times in Hanks buffered salt solution containing 1 mg/ml BSA. The plates were blotted dry and the cells solubilised for by the addition of 750 μl 10 mM Tris HCl, 5 mM EDTA, 0.2% w/v SDS. After 15 min the lysed samples were transferred to tubes and the residual counts determined using a gamma counter.

insulin receptor = target: T3, insulin receptor (Rattus norvegicus, UniProt P15127); experiment: Insulin receptor binding assay on H35 cells
T3 construct: endogenous in cells; host or cells: H35 (rat hepatoma) cells

[1] = refolded material (HRP fusion route)

T3 sequence (P15127 27-759 limits assumed): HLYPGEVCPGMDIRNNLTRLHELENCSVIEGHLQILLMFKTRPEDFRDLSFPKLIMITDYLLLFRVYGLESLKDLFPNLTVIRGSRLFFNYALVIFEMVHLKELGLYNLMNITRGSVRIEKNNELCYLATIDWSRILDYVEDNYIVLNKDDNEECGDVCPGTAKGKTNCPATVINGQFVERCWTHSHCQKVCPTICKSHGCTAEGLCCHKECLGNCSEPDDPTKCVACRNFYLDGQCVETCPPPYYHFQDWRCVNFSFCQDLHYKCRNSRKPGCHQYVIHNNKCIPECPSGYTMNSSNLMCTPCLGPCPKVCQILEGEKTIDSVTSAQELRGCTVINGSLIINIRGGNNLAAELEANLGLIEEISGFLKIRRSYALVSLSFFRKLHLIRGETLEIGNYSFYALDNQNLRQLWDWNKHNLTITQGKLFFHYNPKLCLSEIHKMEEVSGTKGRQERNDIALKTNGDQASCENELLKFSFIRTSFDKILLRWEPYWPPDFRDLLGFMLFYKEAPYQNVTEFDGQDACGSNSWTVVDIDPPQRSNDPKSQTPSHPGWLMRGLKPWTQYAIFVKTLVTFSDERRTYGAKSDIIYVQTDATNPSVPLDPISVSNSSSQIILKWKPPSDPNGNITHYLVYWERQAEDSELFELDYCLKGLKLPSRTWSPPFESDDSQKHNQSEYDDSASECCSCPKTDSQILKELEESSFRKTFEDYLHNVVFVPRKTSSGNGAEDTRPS
T3 sequence (P15127 764-1383 partner limits assumed): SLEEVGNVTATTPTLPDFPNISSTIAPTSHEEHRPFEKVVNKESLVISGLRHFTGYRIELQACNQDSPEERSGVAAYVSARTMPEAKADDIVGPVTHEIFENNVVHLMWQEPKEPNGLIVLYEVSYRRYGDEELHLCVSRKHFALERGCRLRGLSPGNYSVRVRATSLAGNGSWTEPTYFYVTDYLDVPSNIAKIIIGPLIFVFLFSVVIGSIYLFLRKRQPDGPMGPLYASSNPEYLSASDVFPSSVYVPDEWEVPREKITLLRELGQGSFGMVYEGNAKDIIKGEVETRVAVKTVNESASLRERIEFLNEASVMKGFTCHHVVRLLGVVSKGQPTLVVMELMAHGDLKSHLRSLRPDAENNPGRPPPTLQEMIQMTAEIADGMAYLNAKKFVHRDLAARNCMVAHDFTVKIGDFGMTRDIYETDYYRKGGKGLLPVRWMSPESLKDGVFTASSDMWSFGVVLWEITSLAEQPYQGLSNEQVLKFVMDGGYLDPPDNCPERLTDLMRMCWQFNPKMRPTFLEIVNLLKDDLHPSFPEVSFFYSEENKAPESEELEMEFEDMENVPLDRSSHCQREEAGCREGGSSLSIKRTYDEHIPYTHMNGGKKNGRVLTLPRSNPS
T1 sequence (Q60751 31-737 limits assumed): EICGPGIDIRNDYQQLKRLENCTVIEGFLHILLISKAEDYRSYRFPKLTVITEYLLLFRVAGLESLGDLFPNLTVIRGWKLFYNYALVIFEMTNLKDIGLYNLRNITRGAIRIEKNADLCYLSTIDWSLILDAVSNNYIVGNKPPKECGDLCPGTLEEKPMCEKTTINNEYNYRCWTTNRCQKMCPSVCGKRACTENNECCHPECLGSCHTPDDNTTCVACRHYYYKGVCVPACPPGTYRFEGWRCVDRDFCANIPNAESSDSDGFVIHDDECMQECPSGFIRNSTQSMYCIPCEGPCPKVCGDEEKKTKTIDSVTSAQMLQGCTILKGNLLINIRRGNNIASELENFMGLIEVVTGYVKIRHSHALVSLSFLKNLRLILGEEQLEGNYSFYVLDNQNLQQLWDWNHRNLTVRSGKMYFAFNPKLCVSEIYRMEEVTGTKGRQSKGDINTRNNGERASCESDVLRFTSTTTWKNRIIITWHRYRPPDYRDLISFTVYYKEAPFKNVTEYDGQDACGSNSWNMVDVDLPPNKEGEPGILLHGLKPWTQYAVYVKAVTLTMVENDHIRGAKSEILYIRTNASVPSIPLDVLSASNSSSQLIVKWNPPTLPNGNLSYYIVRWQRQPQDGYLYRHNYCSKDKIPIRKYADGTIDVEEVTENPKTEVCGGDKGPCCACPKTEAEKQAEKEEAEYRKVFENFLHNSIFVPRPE
T1 sequence (Q60751 742-1373 partner limits assumed): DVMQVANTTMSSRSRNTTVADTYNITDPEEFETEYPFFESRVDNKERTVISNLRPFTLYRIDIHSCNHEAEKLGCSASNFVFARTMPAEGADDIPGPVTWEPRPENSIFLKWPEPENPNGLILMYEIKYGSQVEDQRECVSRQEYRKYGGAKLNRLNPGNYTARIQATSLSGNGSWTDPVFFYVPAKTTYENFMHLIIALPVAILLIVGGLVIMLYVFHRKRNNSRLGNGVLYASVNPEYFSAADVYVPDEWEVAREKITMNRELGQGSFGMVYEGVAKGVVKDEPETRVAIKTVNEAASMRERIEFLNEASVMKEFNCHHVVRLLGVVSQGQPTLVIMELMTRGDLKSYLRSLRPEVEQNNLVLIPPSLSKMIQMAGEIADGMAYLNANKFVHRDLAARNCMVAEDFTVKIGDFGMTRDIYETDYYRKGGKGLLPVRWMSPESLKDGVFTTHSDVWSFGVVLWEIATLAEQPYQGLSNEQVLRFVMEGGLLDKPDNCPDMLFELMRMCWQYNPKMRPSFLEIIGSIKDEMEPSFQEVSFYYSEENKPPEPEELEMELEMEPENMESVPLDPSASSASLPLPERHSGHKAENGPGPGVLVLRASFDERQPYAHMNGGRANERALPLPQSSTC

Substance: IGF-II (Q^37 Q^38): IGF-II with the modifications Arg37Gln and Arg38Gln
- affinity for the type 1 IGF receptor versus native IGF-II (type 1 IGF receptor): comparable to native IGF-II
- IC50, inhibits binding of 125I-IGF-II (type 1 IGF receptor) (type 1 IGF receptor): 0.21 µg/mL
- affinity for the type 2 IGF receptor versus native IGF-II (type 2 IGF receptor): comparable to native IGF-II
- IC50, inhibits binding of 125I-IGF-II (type 2 IGF receptor) (type 2 IGF receptor; [1]): 0.06 µg/mL
- IC50, inhibits binding of 125I-IGF-II (type 2 IGF receptor) (type 2 IGF receptor; secreted material): 0.03 µg/mL
- IC50, inhibits binding of 125I-insulin (insulin receptor) (insulin receptor; [1]): 1.3 µg/mL
- IC50, inhibits binding of 125I-insulin (insulin receptor) (insulin receptor; secreted material): 1.6 µg/mL

Substance: wild-type refolded material: wild-type IGF-II made by the HRP fusion route and refolded [reference compound]
- IC50, inhibits binding of 125I-IGF-II (type 1 IGF receptor) (type 1 IGF receptor): 0.1 µg/mL
- IC50, inhibits binding of 125I-IGF-II (type 2 IGF receptor) (type 2 IGF receptor; [1]): 0.03 µg/mL
- IC50, inhibits binding of 125I-insulin (insulin receptor) (insulin receptor; [1]): 0.16 µg/mL

Substance: wild-type standard (Bachem): recombinant IGF-II from a commercial supplier (Bachem) used as a reference standard [reference compound]
- IC50, inhibits binding of 125I-IGF-II (type 1 IGF receptor) (type 1 IGF receptor): 0.06 µg/mL
- IC50, inhibits binding of 125I-IGF-II (type 2 IGF receptor) (type 2 IGF receptor; commercial reference standard (Bachem)): 0.018 µg/mL
